According to patent US5688911A, “Trk neurotrophin binding motifs” (priority 1995, dated 1997):
No end group written: not given here.

Assays:
rat TrkB = target: T1, rat TrkB (Rattus norvegicus, UniProt Q63604); settings: mouse NIH 3T3 fibroblasts expressing rat TrkB; cited from earlier work
T1 construct: host or cells: mouse NIH 3T3 fibroblasts (transfected)

TrkB receptors = settings: non-neuronal cells ectopically expressing TrkB; read-out: affinities; cited from earlier work
NT-4 = target: T2, NT-4 (Xenopus laevis, UniProt P24727); test: Qualitative binding assay, receptor affinity, 125I-NT-4; parameters: key to 125I-Neurotrophin NTA binding (qualitative): +neurotrophin binding; -no neurotrophin binding detectible
T2 sequence (P24727 114-236): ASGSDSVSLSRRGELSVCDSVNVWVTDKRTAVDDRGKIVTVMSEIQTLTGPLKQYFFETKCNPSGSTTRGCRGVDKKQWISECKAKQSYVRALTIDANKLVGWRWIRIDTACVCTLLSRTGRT

NGF = target: T3, NGF (Mus musculus, UniProt P01139); test: Qualitative binding assay, receptor affinity, 125I-NGF; parameters: key: +neurotrophin binding; -no neurotrophin binding detectible; settings: Table 2
T3 construct: Mouse submaxillary gland NGF-β, was purchased from Sigma Immuno Chemicals; purchased Amersham (125I-NGFβ); Sigma Immuno Chemicals (unlabelled NGF-β); host or cells: mouse submaxillary gland

BDNF = target: T4, BDNF (Mus musculus, UniProt P21237); test: Qualitative binding assay, receptor affinity, 125I-BDNF; parameters: key: A "+" indicates binding of the neurotrophin in a qualitative binding assay using receptor affinity columns (no Kd determined); A "-" indicates that no binding of the neurotrophin to the respective receptor module could be detected
T4 sequence (P21237 131-249): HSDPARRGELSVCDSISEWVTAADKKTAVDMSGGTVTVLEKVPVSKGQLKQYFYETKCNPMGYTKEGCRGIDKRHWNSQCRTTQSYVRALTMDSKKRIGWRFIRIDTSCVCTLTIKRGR

NT-3 = target: T5, NT-3 (Mus musculus, UniProt P20181); test: Qualitative binding assay, receptor affinity, 125I-NT-3; parameters: key: A "+" indicates binding of the neurotrophin in a qualitative binding assay using receptor affinity columns (no Kd determined); A "-" indicates that no binding of the neurotrophin to the respective receptor module could be detected
T5 sequence (P20181 140-258): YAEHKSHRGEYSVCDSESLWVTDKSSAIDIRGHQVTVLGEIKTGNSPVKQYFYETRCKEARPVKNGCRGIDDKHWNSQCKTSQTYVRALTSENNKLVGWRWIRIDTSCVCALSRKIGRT

T1 sequence (Q63604 32-821): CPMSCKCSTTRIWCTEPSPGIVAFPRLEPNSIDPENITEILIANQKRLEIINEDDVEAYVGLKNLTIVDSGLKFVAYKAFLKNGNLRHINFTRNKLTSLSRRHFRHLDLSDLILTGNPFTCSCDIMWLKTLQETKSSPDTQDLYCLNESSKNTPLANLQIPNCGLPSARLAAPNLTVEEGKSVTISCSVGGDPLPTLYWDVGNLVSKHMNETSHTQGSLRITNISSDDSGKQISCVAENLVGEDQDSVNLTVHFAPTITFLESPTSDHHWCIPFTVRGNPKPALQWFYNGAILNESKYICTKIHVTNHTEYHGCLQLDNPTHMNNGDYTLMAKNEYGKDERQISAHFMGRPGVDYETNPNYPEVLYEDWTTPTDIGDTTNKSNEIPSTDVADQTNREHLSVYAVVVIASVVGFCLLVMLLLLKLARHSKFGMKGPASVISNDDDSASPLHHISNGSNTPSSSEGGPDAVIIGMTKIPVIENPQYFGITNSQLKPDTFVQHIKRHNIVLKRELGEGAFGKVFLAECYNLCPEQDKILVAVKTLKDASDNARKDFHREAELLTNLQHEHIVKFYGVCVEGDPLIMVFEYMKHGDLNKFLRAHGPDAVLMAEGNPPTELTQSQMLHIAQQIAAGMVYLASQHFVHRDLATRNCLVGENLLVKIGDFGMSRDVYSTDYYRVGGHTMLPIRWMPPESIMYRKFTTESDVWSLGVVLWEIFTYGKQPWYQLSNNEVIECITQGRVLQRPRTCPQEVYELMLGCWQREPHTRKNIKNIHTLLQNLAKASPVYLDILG
T3 sequence (P01139 122-241): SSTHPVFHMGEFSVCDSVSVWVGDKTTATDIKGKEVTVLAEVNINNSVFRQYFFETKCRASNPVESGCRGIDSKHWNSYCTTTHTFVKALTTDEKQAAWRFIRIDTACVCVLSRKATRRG

NT-3: neurotrophin 3; iodinated form in binding studies
Kd (rat TrkB): ~1.3 nM
Kd (TrkB receptors): ~1 nM

TIKNSGLRSIQPRAFAKNPHLRYI (SEQ ID NO:3) (TIKNSGLRSIQPRAFAKNPHLRYI) [LRM2 of TrkC, 24 amino acid second leucine rich motif of TrkC]
binding of neurotrophin-4 (NT-4; data not shown): found to bind neurotrophin-4

TIVDSGLKFVAYKAFLKNGNLRHI (SEQ ID NO: 5) [TrkB L2]
125I-Neurotrophin NGF binding (qualitative) (NGF): -
125I-Neurotrophin NTA binding (qualitative) (NT-4; Table 2): +

TIVKSGLRFVAPDAFHFTPRLSHL (SEQ ID NO: 4) (TIVKSGLRFVAPDAFHFTPRLSHL; also: MBP fusion partner) [TrkA L2, isolated 24 amino acid second leucine-rich motif of rat TrkA (Thr97-Leu120), MBP fusion]
BDNF binding (qualitative) (BDNF): -
NT-3 binding (qualitative) (NT-3): -

B1: BDNF: Brain-derived neurotrophic factor, a neurotrophin; iodinated form in binding studies (protein, UniProt P23560 19-247, looked up)
Neurotrophic factor BDNF …: APMKEANIRGQGGLAYPGVRTHGTLESVNGPKAGSRGLTSLADTFEHVIEELLDEDQKVRPNEENNKDADLYTSRVMLSSQVPLEPPLLFLLEEYKNYLDAANMSMRVRRHSDPARRGELSVCDSISEWVTAADKKTAVDMSGGTVTVLEKVPVSKGQLKQYFYETKCNPMGYTKEGCRGIDKRHWNSQCRTTQSYVRALTMDSKKRIGWRFIRIDTSCVCTLTIKRGR
modifications: 125I label
Kd (rat TrkB): ~1.8 nM
Kd (TrkB receptors): ~1 nM
